From patent US20210002644, “ANTI-CHYMASE APTAMER AND USE FOR SAME” (RIBOMIC INC., published 2021)

How the values were obtained:
[1] = biological target: T1, chymase (recombinant, SIGMA) (UniProt P23946); assay: inhibition; conditions: 2'-F pyrimidines (U, C); negative control pool, no inhibition
T1 sequence: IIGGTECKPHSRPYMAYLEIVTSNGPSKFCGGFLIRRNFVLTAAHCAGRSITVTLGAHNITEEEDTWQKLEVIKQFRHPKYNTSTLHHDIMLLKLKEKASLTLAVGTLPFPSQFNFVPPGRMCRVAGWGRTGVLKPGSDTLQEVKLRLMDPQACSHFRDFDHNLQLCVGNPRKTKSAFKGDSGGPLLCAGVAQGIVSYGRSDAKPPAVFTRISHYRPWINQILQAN

[2] = biological target: T2, chymase (recombinant, SIGMA) (UniProt P23946 P23946:22-247); assay: inhibition; Suc-AAPF-MCA substrate, 37 C; conditions: tags: SIGMA recombinant
T2 sequence: T1 sequence
Protocol: (§1) By detecting the fluorescence of this AMC, the enzyme activity of chymase can be determined. The assay was performed using a 96-well plate (F16 Black Maxisorp Fluoronunc, manufactured by Nunc), with a reaction mixture volume of 100 μL, in solution C as a buffer solution. Here, the solution C is a mixed solution of 145 mM sodium chloride, 5.4 mM potassium chloride, 1.8 mM calcium chloride, 0.8 mM magnesium chloride, 20 mM Tris (pH 7.6), and 0.05% Tween20. First, nucleic acid was serially diluted in solution C to obtain 50 μL solutions. After 10 μL of the 1 mM substrate prepared in solution C was added thereto, the plate was set to the microplate reader SpectraMax190 (manufactured by Molecular Devices Corporation), and incubated at 37° C. for 5 minutes. Separately, 0.05 μg of chymase (recombinant, manufactured by SIGMA) was diluted in solution C to obtain a 40 μL chymase solution, and incubated at 37° C. for 5 minutes. The chymase solution was added to the mixture of the nucleic acid and substrate to initiate an enzyme reaction. The final chymase concentration in the reaction mixture was 16.7 nM, the final substrate concentration being 100 μM. The plate containing the reaction mixture was set to the microplate reader SpectraMax190 (manufactured by Molecular Devices Corporation), and examined for time-dependent changes in the fluorescence intensity at 37° C. for 5 minutes (or 30 minutes) (excitation wavelength 380 nm, detection wavelength 460 nm). A linear approximation of the increase in the fluorescence of the AMC released from the substrate by chymase activity was generated, and its slope was taken as the initial velocity […]. For control, samples were treated and analyzed in the same manner in two cases: use of a 30N (a nucleotide of 30 consecutive bases represented by N; N is A, G, C or T) nucleic acid pool (negative control), and use of chymostatin, a known chymotrypsin-like serine protease inhibitor (positive control). Taking the initial reaction velocity without the nucleic acid and inhibitor (V₀) as a 100% enzyme activity, the inhibitory rate of each test substance was calculated using the following equation: […]

[3] = biological target: T3, chymase (native, human skin mast cell) (Homo sapiens, UniProt P23946 P23946:22-247); assay: inhibition; angiotensin I substrate, 37 C; conditions: tags: Calbiochem Human Skin
T3 sequence: T1 sequence
Protocol: (§2) The total volume of solution for an enzyme reaction in the assay was set to 50 μL, and the reaction was performed in solution C buffer. At first, native (manufactured by Calbiochem) was diluted with solution C to give 5 μL thereof. Here, the native is chymase purified from human skin mast cell. The nucleic acid was serially diluted with solution C at a concentration of 0.0027-2 μM to give 25 μL thereof. The chymase solution (5 μL) and the nucleic acid solution (25 μL) were mixed, and the mixture was incubated at 37° C. for 5 min. On the other hand, […] angiotensin I (manufactured by PEPTIDE […], INC.) was prepared in solution C to give 20 μL thereof, which was incubated at 37° C. for 5 min. […] The whole mixture was centrifuged at 4° C., 14000 rpm for 10 min, and the supernatant (30 μL) was used for the next fluorescence induction reaction.
(§3) The above-mentioned supernatant (30 μL) was added to a 96 well plate (black, manufactured by Costar), a solution (15 μL) of 2% o-phthalaldehyde (manufactured by SIGMA) in methanol and 0.3M NaOH solution (170 μL) were added to each well, and the mixture was incubated at room temperature for 10 min. […] The plate was set on a microplate reader SpectraMax190 (manufactured by Molecular device) and the fluorescence intensity was measured at an excitation wavelength of 355 nm and a fluorescence wavelength of 460 nm. […]

[4] = biological target: T2, chymase (recombinant, SIGMA); assay: inhibition; Suc-AAPF-MCA substrate, 37 C, 1.8 mM Ca, 0.8 mM Mg, pH 7.6; conditions: tags: SIGMA recombinant
Protocol: By detecting the fluorescence of this AMC, the enzyme activity of chymase can be determined. The assay was performed using a 96-well plate (F16 Black Maxisorp Fluoronunc, manufactured by Nunc), with a reaction mixture volume of 100 μL, in solution C as a buffer solution. Here, the solution C is a mixed solution of 145 mM sodium chloride, 5.4 mM potassium chloride, 1.8 mM calcium chloride, 0.8 mM magnesium chloride, 20 mM Tris (pH 7.6), and 0.05% Tween20. First, nucleic acid was serially diluted in solution C to obtain 50 μL solutions. After 10 μL of the 1 mM substrate prepared in solution C was added thereto, the plate was set to the microplate reader SpectraMax190 (manufactured by Molecular Devices Corporation), and incubated at 37° C. for 5 minutes. […] The plate containing the reaction mixture was set to the microplate reader SpectraMax190 (manufactured by Molecular Devices Corporation), and examined for time-dependent changes in the fluorescence intensity at 37° C. for 5 minutes (or 30 minutes) (excitation wavelength 380 nm, detection wavelength 460 nm). A linear approximation of the increase in the fluorescence of the AMC released from the substrate by chymase activity was generated, and its slope was taken as the initial velocity […]. […]

[5] = biological target: T3, chymase (native, human skin mast cell); assay: inhibition; angiotensin I substrate, 37 C; conditions: tags: Calbiochem Human Skin; remark: listed apart in the source
Protocol: (§4) Whether the nucleic acids shown by SEQ ID NO: 9 and 10 inhibit the enzyme activity of chymase was determined by the following method. Angiotensin I is converted by chymase to angiotensin II, during which a peptide fragment His-Leu is released. Since the peptide His-Leu is fluorescently derivatized by o-phthalaldehyde, its fluorescence intensity can be quantitatively measured.
(§5) The total volume of solution for an enzyme reaction in the assay was set to 50 μL, and the reaction was performed in solution C buffer. At first, native (manufactured by Calbiochem) was diluted with solution C to give 5 μL thereof. Here, the native is chymase purified from human skin mast cell. […] The whole mixture was centrifuged at 4° C., 14000 rpm for 10 min, and the supernatant (30 μL) was used for the next fluorescence induction reaction.
(§6) The above-mentioned supernatant (30 μL) was added to a 96 well plate (black, manufactured by Costar), a solution (15 μL) of 2% o-phthalaldehyde (manufactured by SIGMA) in methanol and 0.3M NaOH solution (170 μL) were added to each well, and the mixture was incubated at room temperature for 10 min. […] The plate was set on a microplate reader SpectraMax190 (manufactured by Molecular device) and the fluorescence intensity was measured at an excitation wavelength of 355 nm and a fluorescence wavelength of 460 nm.

[6] = biological target: T3, chymase (native, human skin mast cell); assay: inhibition; angiotensin I substrate; second G of GGGG 2'-OMe; conditions: tags: Calbiochem Human Skin
Protocol: as §2, §3

[7] = biological target: T2, chymase (recombinant, SIGMA); assay: inhibition; Suc-AAPF-MCA substrate, 0.005 ug chymase, single measurement; conditions: tags: SIGMA recombinant
Protocol: as §1, with “The” for “By detecting the fluorescence of this AMC, the enzyme activity of chymase can be determined. The”
In the evaluation of SEQ ID NO: 21-25, a method similar to the evaluation method of inhibitory activity against chymase shown in Example 1 by using MCA as a substrate except that the amount chymase was changed from 0.05 μg to 0.005 μg was used for measurement.

[8] = biological target: T3, chymase (native, human skin mast cell); assay: inhibition; angiotensin I substrate, 37 C, 1.8 mM Ca, 0.8 mM Mg, pH 7.6; conditions: tags: Calbiochem Human Skin
Protocol: as §4, §5, §6

[9] = biological target: T3, chymase (native, human skin mast cell); assay: inhibition; angiotensin I substrate; table prints length 32 though SEQ 33 is 31 nt; conditions: tags: Calbiochem Human Skin
Protocol: The total volume of solution for an enzyme reaction in the assay was set to 50 μL, and the reaction was performed in solution C buffer. At first, native (manufactured by Calbiochem) was diluted with solution C to give 5 μL thereof. Here, the native is chymase purified from human skin mast cell. The nucleic acid was serially diluted with solution C at a concentration of 0.0027-2 μM to give 25 μL thereof. The chymase solution (5 μL) and the nucleic acid solution (25 μL) were mixed, and the mixture was incubated at 37° C. for 5 min. On the other hand, […] angiotensin I (manufactured by PEPTIDE […], INC.) was prepared in solution C to give 20 μL thereof, which was incubated at 37° C. for 5 min. The angiotensin I solution was added to a mixture of chymase and nucleic acid to start an enzyme reaction. The final chymase concentration of the reaction solution was 0.5 nM, and the final substrate concentration was 50 μM. After reaction at 37° C. for 90 min, ice-cooled 30% trichloroacetic acid solution (25 μL) was added to quench the reaction. The whole mixture was centrifuged at 4° C., 14000 rpm for 10 min, and the supernatant (30 μL) was used for the next fluorescence induction reaction.

[10] = biological target: T3, chymase (native, human skin mast cell); assay: inhibition; angiotensin I substrate; 40 kDa PEG; conditions: tags: Calbiochem Human Skin
Protocol: as §2, §3

[11] = biological target: T3, chymase (native, human skin mast cell); assay: inhibition; angiotensin I substrate; second G of GGGG 2'-OMe; conditions: tags: Calbiochem Human Skin; remark: listed apart in the source
Protocol: as §2, §3

## UCACACUAGCACGCAUAGGNNNNNNNNNNNNNNNNNNNNNNNNNNNNNNCAUCUGACCUCUCUCCUGCUCCC [30N nucleic acid pool]
[1]
  IC50: > 500 nM

B1: SEQ ID NO: 2 (ssRNA)
RNA: GGGAGCAGGAGAGAGGUCAGAUGAUCGGACAUAACAUUGUUGGGGUGUCAAGGCCUAUGCGUGCUAGUGUGA
modifications: 2'-F pyrimidines (U, C); purines 2'-OH
[2]
  IC50: 31 nM
[3]
  IC50: 10 nM

B2: SEQ ID NO: 1 (ssRNA)
RNA: GGGAGCAGGAGAGAGGUCAGAUGAGCAUGCUUUUUGGUAACCGAUAAUGGGGGCCUAUGCGUGCUAGUGUGA
modifications: 2'-F pyrimidines (U, C); purines 2'-OH
[4]
  IC50: 41 nM

B3: SEQ ID NO: 10 (ssRNA)
RNA: GGGAACGAAGCGACAGACCGAAUCAGAAGUUCAACAUGGACAUAACAUCGAUGGGGUGUCAAGUACUGACGACAGA
modifications: 2'-F pyrimidines (U, C); purines 2'-OH
[5]
  IC50: 0.43 nM

B4: SEQ ID NO: 17(1) (ssRNA)
RNA: GAUGAUCGGACAUAACAUUGUUGGGGUGUCAA
modifications: GAU(F)GAU(F)C(F)GGAC(F)AU(F)AAC(F)AU(F)U(F)GU(F)U(F)G(M)G(M)GGU(F)GU(F)C(F)AA (F=2'-F, M=2'-OMe)
[6]
  IC50: 44.4 nM

B5: SEQ ID NO: 17(3) (ssRNA)
RNA: B4 RNA
modifications: idT-G(M)A(M)U(F)G(M)A(M)U(F)C(F)G(M)G(M)A(M)C(F)A(M)U(F)AAC(F)AU(F)U(F)G(M)U(F)U(F)GG(M)G(M)G(M)U(F)G(M)U(F)C(F)A(M)A(M)-idT (F=2'-F, M=2'-OMe)
[6]
  IC50: 5.66 nM

## GGCAGAUGAUCGGACAUAACAGUAGAUAGAGUUAAAACUGGGGUGUCAA (ssRNA, 2'-F pyrimidines (inferred)) [SEQ ID NO: 23]
[7]
  IC50: 7.8 nM

## GGCAGAUGAUCGGACAUAACAAGAUAGAGUUAAAUGGGGUGUCAA (ssRNA, 2'-F pyrimidines (inferred)) [SEQ ID NO: 25]
[7]
  IC50: 5.8 nM

## GGCAGAUGAUCGGACAUAACAUAGAUAGAGUUAAAAUGGGGUGUCAA (ssRNA, 2'-F pyrimidines (inferred)) [SEQ ID NO: 24]
[7]
  IC50: 3.7 nM

B6: SEQ ID NO: 9 (ssRNA)
RNA: GGGAACGAAGCGACAGACGUUCCAGCGUCUAAUACGUGAAUAACCUGAUCGUAGGGGGUUCAAGUACUGAGGACAGA
modifications: 2'-F pyrimidines (U, C); purines 2'-OH
[8]
  IC50: 0.22 nM

## AUGAUCGGACAUAACUAAUUAGGGGUGUCAA (ssRNA, 2'-F pyrimidines (U, C); purines 2'-OH) [SEQ ID NO: 33]
[9]
  IC50: 0.21 nM

B7: SEQ ID NO: 33(18) (mixed)
RNA: AUGAUCGGACAUAACUAAUUAGGGGUGUCAA
modifications: PEG-A(M)U(M)G(M)A(M)U(F)C(F)G(M)G(M)A(M)C(M)A(M)U(M)AAC(M)U(F)A(M)A(M)U(M)TA(M)G(M)GG(M)G(M)TG(M)U(M)C(M)A(M)A(M)-idT (F=2'-F, M=2'-OMe, PEG=40 kDa branched PEG)
[10]
  IC50: 0.109 nM

B8: SEQ ID NO: 33(9) (mixed)
RNA: B7 RNA
modifications: idT-A(M)U(M)G(M)A(M)U(F)C(F)G(M)G(M)A(M)C(M)A(M)U(M)AAC(M)U(F)A(M)A(M)U(M)U(M)A(M)G(M)G(M)G(M)G(M)tG(M)U(M)C(M)A(M)A(M)-idT (F=2'-F, M=2'-OMe)
[11]
  IC50: 1.35 nM
